Article PMC6192543 (Journal of the American Chemical Society, 2018)

Target: human A2A adenosine receptor variant A2AAR[K233W] (human, UniProt P29274 1-316, N154Q | K233W, uniformly 15N-labelled, ~70% 2H)
Test: NMR titration

Chain of human A2A adenosine receptor variant A2AAR[K233W] (P29274 1-316 N154Q/K233W): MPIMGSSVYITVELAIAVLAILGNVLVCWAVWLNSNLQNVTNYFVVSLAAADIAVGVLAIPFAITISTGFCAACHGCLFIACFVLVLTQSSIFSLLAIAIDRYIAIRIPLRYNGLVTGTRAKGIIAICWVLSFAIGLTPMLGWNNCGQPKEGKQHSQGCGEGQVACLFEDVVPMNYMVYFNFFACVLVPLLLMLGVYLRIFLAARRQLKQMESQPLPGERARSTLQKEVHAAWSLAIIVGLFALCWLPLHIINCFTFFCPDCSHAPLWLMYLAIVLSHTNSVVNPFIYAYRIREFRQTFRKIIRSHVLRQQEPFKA

binding result: binds
Binder: RVFNDARDIIQRMHLRQYELL (peptide, UniProt P63092 374-394, looked up) [C-terminal polypeptide GαS(374–394)[C379A]]
